{"source": "patent US20250084164A1", "about": "(NEXTCURE, published 2025)", "binders": {"B1": {"name": "chimeric 11B3 (antibody, V domains shown)", "VH": "EVQLVESGGGLVQPKGSLKLSCAASDFTFNTYAMHWVRQAPGKGLEWVARIRTKSNNYATYYADSVKDRFTISRDDSQSMLYLQMNNLTTEDTAMYYCVRDRYGGAMDYWGQGTSVTVSS", "VL": "DIQMAQSSSSFSVSLGDRVTITCKASEDIYIRLAWYQQKPGNAPRLLISTATSLETGVPSRFSGSGSGKDYTLSITSLQTEDVATYYCQQYWSTPYTFGGGTRLEIK", "notes": "Chimeric mAb"}, "B2": {"name": "chimeric 1E11 (antibody, V domains shown)", "VH": "QVQLQQSGPELVKPGASVKLSCKASGYTFTSYDINWVKQRPGQGLEWIGWIYPRDGSTKYNEKLKGKATLTVDTSSRTAYMELHSLTSEDSAVYFCARGGYYDYDGYWGQGTLVTVSA", "VL": "DIVMTQAAFSNPVTLGTSASISCRSSKSLLHSNGITYLYWYLQKPGQSPQVLIYQMSSLASGVPDRFSSSGSGTEFTLRISRVEAEDVGVYYCAQNLELPLTFGAGTKLELK", "notes": "Chimeric mAb (mouse variable, human constant)"}, "B3": {"name": "chimeric LAIR-1 mAb 7G3 (antibody, V domains shown)", "VH": "B2 VH with S31T, S57T, L64F, R77T", "VL": "B2 VL with S58N, L99F", "notes": "Chimeric mAb"}, "B4": {"name": "chimeric 5E1 (antibody, V domains shown)", "VH": "EVQLQQSGPELVKPGASVKISCKASGYSFTGYFMNWVKQSPEKSLEWIGEIHPSTGSIIYNQKFKAKATLTIDKSSSTAYMQLKSLTSEDSAVYYCARFDYSNSFAYWGQGTLVTVSA", "VL": "DIQMTQTTSSLSASLGDRVTISCRASQDISNYLNWYQQKPDGTVKLLIYYTSRLHSGVPSRFSGSGSGTDYSLTISNLEQEDIATYFCQQGNTLPRTFGGGTKLEIK", "notes": "Chimeric mAb"}, "B5": {"name": "chimeric 6G6 (antibody, V domains shown)", "VH": "EVQLQQSGPELVKPGASVKISCKASGYTFTTYYMNWVKQSHGKSLEWIGNINPDNGITSYNQKFKGKATLTVDKSSSTAYMELRSLTSEDSAVYYCARGKSLAYWGQGTLVTVSA", "VL": "DIVMTQSHKFMSTSVGDRVSITCKASQNVGTAVAWYQQKPGQSPKLLIYWASIRHTGVPDRFTGSGSGTDFTLTISNVQSEDLADYFCQQYSSHPYTFGGGTKLEIK", "notes": "Chimeric mAb"}, "B6": {"name": "chimeric LAIR-1 mAb 5A6 (antibody, V domains shown)", "VH": "QVQLQQSGAELARPGASVKLSCKASGYTFTSYGISWVKQRTGQGLEWIGEIYPRRGNTYYNEKFKGKATLTADKSSSTAYMELRSLTSEDSAVYFCARQLFAYWGQGTLVTVSA", "VL": "DIQMTQSPSSLSASLGERVSFSCRASQDIGSSLNWLQQEPDGTIKRLIYATSSLDSGVPKRFSGSRSGSDYSLTISSLESEDFVEYYCLQYDSFPYTFGGGTKLEIK"}, "B7": {"name": "chimeric LAIR-1 mAb 6B2 (antibody, V domains shown)", "VH": "EVQLVESGGGLVQPKGSLKLSCAASGFSFNINAMNWVRQAPGKGLEWVARIRSKSNNYETYYADSVKDRFTISRDDSESMVYLQMNNLKTEDTAMYYCVRSLWFVYWGQGTLVTVSA", "VL": "DIQMTQSPASQSASLGESVTITCLASQTIGTWLAWYQQKPGKSPQLLIYAATSLADGVPSRFSGSGSGTKFSFKISSLQAEDFVSYYCQQLYSTPLTFGAGTKLELK"}, "B8": {"name": "chimeric LAIR-1 mAb 6F4 (antibody, V domains shown)", "VH": "QVQLQQSGAELAKPGASVKLSCKASGYTFTSYWMHWVKQRPGQGLEWIGYINPFSGHTKYNQKFKDKATLTADKSSSTAYMQLSSLTYEDSAVYYCARNFDQWGQGTTLTVSS", "VL": "DIKMTQSPSSMYASLGERVTITCKASQDINSYLSWVQQKPGKSPKTLIDRANRLVDGVPSRFSGSGSGQDYSLTISSLEYEDMGIYYCLQYDEFPPYTFGGGTKLEIK"}, "B9": {"name": "9H6 (antibody, V domains shown)", "VH": "EVQLVESGGGLVQPKGSLKLSCAASGFSFNTHAMNWVRQAPGKGLEWVARIRTKSNNYATYYADSVKDRFIISRDDSENMVYLQMNNLKTEDTAIYYCVRLRGGFLDYWGQGTTLTVSS", "VL": "B7 VL with K42R, S76N, L96F, A100S, L106I"}, "B10": {"name": "12E10V1 (antibody, V domains shown)", "VH": "QVQLQQSGAELARPGTSVKLSCKASGYTFTSCGLSWVKQRTGQGLEWIGEIYPSNGNSYYSDKVKDKATLTADKSSSTAYMELRSLTSEDSAVYFCARAYYTNGYYAMDYWGQGTSVTVSS", "VL": "DIVMTQSQKFMSTSVGDRVSITCKASQNVRSAVAWYQQKPGQSPKTLIYLASNRHTGVPDRFTGSGSGTDFTLTISNVQSEDLADYFCLQHWNYPLTFGAGTKLELK"}, "B11": {"name": "chimeric LAIR-1 mAb 4B3 (antibody, V domains shown)", "VH": "QIQLQQSGAELARPGASVKLPCKASDYIFISYGLNWVRQTTGQGLEWIGEIYPRSGHTYYNEKFKGKATLTADKSSSTAYMELRSLTSEDSAVYFCARRSVFYDYDKNGFDYWGQGTTLTVSS", "VL": "DIVMKQSPSSLRVSAGEKVTMSCKSSQSLLNSGNQKNYLAWYQQKPGQPPKLLIYGASTRESGVPDRFTGSGSGTDFALTISSVQAEDLAVYYCQNDHSYPFTFGSGTKLEIK"}}, "note": "Positions count from the first letter of the chain named."}
{"biological_target": "T1, monomeric LAIR-1-His (R&D Systems) (UniProt Q6GTX8 22-163, limits assumed)", "T1 construct": "Bought protein", "T1 sequence (looked up)": "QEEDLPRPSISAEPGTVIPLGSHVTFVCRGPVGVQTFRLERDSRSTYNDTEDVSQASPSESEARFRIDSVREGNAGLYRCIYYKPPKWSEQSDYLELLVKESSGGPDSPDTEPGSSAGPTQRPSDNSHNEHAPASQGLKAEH", "experiment": "BLI (Octet RED96), chimeric mAb on anti-human IgG sensor, monomeric LAIR-1-His in solution", "description": "Anti-human IgG capture sensors were used to bind to chimeric LAIR-1 mAbs at a density to ensure 1:1 binding to monomeric LAIR-1-His (R&D Systems) in solution at various concentrations. Assay buffer was PBS with 0.05% Tween-20 and regeneration buffer was 10 mM glycine pH 1.5. First, chimeric LAIR-1 mAbs were loaded to sensor. This was followed by association step with LAIR-1-His, and a dissociation step in a separate LAIR-1-His free well. Data was processed using ForteBio data analysis software 9.0. A global fit was used following subtraction of reference wells. The reported average KD values are from at least three independent Octet runs with high confidence of accuracy based on X2 and R2 values. Note the two chimeric versions of 12E10 were tested. Both had relatively low affinity, while the 12E10V2 mAb was removed from usage due to very low affinity.", "units": {"Kd": "nM"}}
{"binder": "B1", "Kd": "< 5"}
{"binder": "B2", "Kd": "< 5"}
{"binder": "B3", "Kd": "< 5"}
{"binder": "B4", "Kd": "< 5"}
{"binder": "B5", "Kd": "< 5"}
{"biological_target": "T2, monomeric LAIR-1-His (R&D Systems) (UniProt Q6GTX8 22-163)", "T2 chain": "T1 sequence (looked up)", "experiment": "BLI (Octet RED96)", "units": {"Kd": "nM"}}
{"binder": "B6", "Kd": 23.3}
{"binder": "B1", "Kd": 1.98}
{"binder": "B7", "Kd": 6.53}
{"binder": "B2", "Kd": 1.37}
{"binder": "B3", "Kd": 1.63}
{"binder": "B4", "Kd": 3.92}
{"binder": "B8", "Kd": 12.8}
{"binder": "B9", "Kd": 11.6}
{"binder": "B10", "Kd": 20.2}
{"binder": "B11", "Kd": 32.3}
{"binder": "B5", "Kd": 4.7}
